These results are taken from PMC3914025 (Nature, 2013).

The series deals with the molecule itself. The experiment in a line: crystal structure.

B1: NapA from Thermus thermophilus, triple cysteine mutant (Met20, Val166, Val326 to cysteine) (natural protein)
chain: MHGAEHLLEIFYLLLAAQVCAFIFKRLNQPVVIGEVLAGVLVGPALLGLVHEGEILEFLAELGAVFLLFMVGLETRLKDILAVGKEAFLVAVLGVALPFLGGYLYGLEIGFETLPALFLGTALVATSVGITARVLQELGVLSRPYSRIILGAAVIDDVLGLIVLACVNGVAETGQVEVGAITRLIVLSVVFVGLAVFLSTLIARLPLERLPVGSPLGFALALGVGMAALAASIGLAPIVGAFLGGMLLSEVREKYRLEEPIFAIESFLAPIFFAMVGVRLELSALASPVVLVAGTVVTVIAILGKVLGGFLGALTQGVRSALTVGCGMAPRGEVGLIVAALGLKAGAVNEEEYAIVLFMVVFTTLFAPFALKPLIAWTERERAAKEGSENLYFQ
Regarding B1, the binding result is on record as “binds”.
